Experimental data taken from patent US20160045158A1, “DEVICES, SYSTEMS, AND METHODS FOR TRANSDERMAL DELIVERY OF COMPOUNDS” (PROMETHEON PHARMA, LLC, priority 2013, published 2016).

Experiments:
[1] = system: EpidermFT™ (MatTek) full thickness human skin equivalent tissues; test: Transdermal flux/accumulation across EpidermFT full thickness human skin equivalents (Iso-Insulin ELISA of receptor fluid); assay type: in vitro ADME
Procedure: Proof-of-concept ex vivo studies of transdermal delivery of long-acting insulin analogues by a poloxamer 188, propylene glycol and lauracopram formulation designated TopiconDM™ were performed using metabolically active full thickness human skin equivalent (HSE) inserts from EpidermFT™ (MatTek) grown on a semi-permeable membrane that allows test compounds to pass through the tissue and accumulate in the receptor fluid on the other side. It is important to note that the term TopiconDM™ is a trademark, is not descriptive of the subject formulation, and is merely an indication of the source of the subject formulation. Thus, the use of the term TopiconDM™ herein shall not be used to affect any trademark rights associated with the term TopiconDM™.
All transdermal delivery in this model occurs exclusively by permeation across the barrier-enhanced stratum corneum. Drug permeation studies were modeled according to classic Franz cell in-sink diffusion studies. Studies were carried out for 5-7 continuous days to determine whether a 7-day TopiconDM™ basal insulin patch containing an insulin or insulin analogue is feasible. A semi-high throughput protocol was developed for the use of EpidermFT™, a barrier enhanced, mitotically and metabolically active human skin tissue model.
To determine the feasibility of creating a 7-day (weekly) TopiconDM™ insulin glargine patch, a protocol was developed in which the tissue inserts were incubated in tissue culture maintenance medium (with serum). All insulin and insulin analogues were commercially purchased and lyophilized. TopiconDM™ insulin glargine formulations were specifically adjusted to pH 4.0; all other insulin formulations were adjusted to pH ˜7 were prepared to deliver doses ranging from 0.01-50 IU in a volume of 50 microliters at 32° C. applied to the apical surface of individual 0.6 cm^2 EpidermFT™ (MatTek) full thickness human skin equivalent tissues in 6-well plates containing 2.0 ml of receptor fluid incubated at 32° C. throughout the duration of each study. It was empirically determined that 50 microliters of the formulations was sufficient to cover the entire surface of the tissue inserts when applied directly to the center. 200 microliter samples from the receptor chamber on the basal side were removed at 0.5, 1, 2, 3, 6, 8, 12, 20, 24 hours and then every 24 hours for up to 7-days; 200 microliters of fresh maintenance medium with serum was added back to receptor chamber after each sampling (closed system model). Plasma insulin and insulin analogue accumulation in mIU/cm^2 (reflecting transdermal delivery across 0.6 cm^2 tissue surface area) was quantified using the Iso-Insulin ELISA Kit (Mercodia AB, Uppsala, Sweden).
The MatTek EpidermFT™ (EFT-300) tissues are also documented to have more of the structural features of the basement membrane. […] The saturating dose for insulin glargine is 10 U/0.6 cm^2 since the flux is not increased at a dose of 20 U/0.6 cm^2. Indeed, the accumulation curves for these doses are superimposable. Results reflect ELISA measurements (Mercodia Iso-Insulin) performed in triplicate for samples at each time point.

[2] = cited from earlier work
[3] = system: keratinized apical layer of the mouse cervix; settings: in vivo
From the text: The P188/PG (80/20 ratio) co-polymer was then used to deliver FITC-tagged 38 amino acid cytotoxic decoy peptides.
To achieve topical delivery of decoy peptides into the entire mouse cervical T-zone, a solid FITC-tagged decoy peptide-containing co-polymer/enhancer rod was manually delivered into the endocervical canal and into one of the 2 cervical/uterine horns of a 7 month old K14E6 homozygous female transgenic mouse expressing the HPV type 16 E6 oncoprotein that synergizes with 1713-estradiol to induce low-grade dysplasia (CIN I, II) in situ that closely mimics the step-wise development of human cervical cancer; the “untreated” cervical served as an internal control.
After animals were anesthetized, a “speculum” comprised of a standard P-100 pipette tip with the tip cut off at the midpoint along its length was inserted into the vagina to expose the opening of the cervical canal. A three-fourth inch long, 24-guage catheter (Teruma Surflush; inner diameter 0.47 mm) with the trocar removed was fit onto a compatible P-10 micropipette. The catheter was loaded with the peptide-containing, liquid co-polymer/enhancer formulation to a length that approximates the entire cervical T-zone and extends across the squamo-columnar junction into the uterine horn. […]
1 mM FITC-conjugated *Br1 was used for direct visualization of peptide delivery by fluorescence microscopy. […]

[4] = system: STZ-Induced Male CD Hairless Rat: Type 1 DM; test: Blood glucose PD in STZ-induced male CD hairless rats (type 1 DM); assay type: in vivo
Procedure: (§1) Referring to FIG. 14, shown is a 24 Hour PK/PD study showing rapid appearance in and elimination of SC Injected Glargine from the Systemic Circulation. The red plot is the glargine concentration from pooled plasma (average±std dev of ELISA measurements). Blue plot is blood glucose (BG) concentration (average±std dev) measured by ACCU-CHEK® Aviva glucose meter. Average BG (blue line) and range (white horizontal bar) in normal CD hairless rats was determined to be ˜130 mg/dL (100-160 mg/dL) in a cohort of adult rats weighing ˜250 gm.
PD (Y-axis scale on right): The blood glucose (BG) and plasma glargine plots are essentially minor images of each other, consistent with an expected dramatic BG lowering effect after insulin glargine injection. The baseline mean BG of ˜375 mg/dL rapidly reached a nadir of ˜70-80 mg/dL that was persistent between 0.5-5 hours, representing asymptomatic hypoglycemia.
(§2) Green plot is plasma glargine concentration (average±std dev). Brown plot is blood glucose concentration (average±std dev) measured by ACCU-CHEK® Aviva glucose meter. Measurements were obtained from all individual animals (N=4) at each time point (i.e. blood samples were not pooled). ELISA to quantitate the plasma glargine level was performed in triplicate on blood samples from individual animals (N=4) at each time point using the Mercodia Iso-Insulin kit.
Referring to FIG. 16, A PD study of insulin glargine BG lowering effect comparing 1 U subcutaneous (sc) injection (gold standard) versus 5 U/1 cm^2 patch was performed. Referring to FIG. 18, the blue plot is BG concentration (average±std dev) of rats that received a single 1 U subcutaneous injection. Brown plot is BG concentration of rats that received a 5 U/1 cm^2 patch. BG measurements by ACCU-CHEK® Aviva glucose meter were obtained from all individual animals (N=4) at each time point (i.e. blood samples were not pooled). ELISA to quantitate the plasma glargine level was performed in triplicate on blood samples from individual animals (N=4) at each time point using the Mercodia Iso-Insulin kit.

[5] = Plasma glargine PK in STZ-induced male CD hairless rats (type 1 DM); assay type: in vivo, rat; settings: single 2 U subcutaneous injection
Procedure: as §1
ELISA to quantitate the plasma glargine level was performed in triplicate on pooled blood for each time point (alternating N=2 and N=3) using the Mercodia Iso-Insulin kit. Blood samples were pooled to allow for adequate sampling of many time points over the course of 24-hour study and to reduce variability. This method has been validated for performing PK studies.
as §2

[6] = assay type: in vitro ADME, human
Procedure: In human studies, the total plasma free insulin concentration reached a plateau concentration of 18.9 µIU/mL based on a well cited published study of glargine pharmacokinetics after a single subcutaneous injection in type 1 diabetic subjects over 3-24 hours (Lepore, M et al 2000, Diabetes 49:2142-2148). However, the actual steady-state plateau glargine concentration was 6.4 µIU/mL because the patients were titrated to an insulin concentration of ˜12.5 µIU/mL with a continuous lispro short-acting insulin infusion before glargine was administered. After scaling for average adult blood volume of 5 L and adjusting for known cross-reactivity of our ELISA assay with various insulin analogues (44% for glargine, 22% for detemir), a table comparing patch size and insulin dose required to achieve targets of 6.4 µIU/mL within 24 hours after administration of TopiconDM™ containing insulin glargine could be determined. […] However, it is apparent that the 10 IU/0.6 cm^2 dose of insulin glargine can achieve and maintain a target steady-state total insulin concentration of 6.4 µIU/mL with a 0.6×0.6 cm patch throughout the 5-days of the study.
The concentration of insulin glargine achieved is based on accumulation in 2.5 ml of receptor volume in the tissue model extrapolated to average adult blood volume of 5 L. […]

Human growth hormone (hGH): human growth hormone (22 kDa)
flux dose-response [1]: clear dose-response

insulin detemir
Cmax for adults ([2]; single 0.5 U/kg dose, patients with type 1 DM): 208 microU/mL

insulin glulisine
flux dose-response [1]: clear dose-response

insulin aspart
flux dose-response [1]: clear dose-response

ERQIKIWFQNRRMKWKKATGCLLDDGLEGLFEDID [*Br1]
penetration across keratinized apical layer of mouse cervix / cervical squamous epithelium [3]: Successful transdermal delivery

insulin glargine
hypoglycemia (BG<100 mg/dL) ([4]; 1 U sc injection): rapidly became hypoglycemic
hypoglycemia (BG<100 mg/dL) ([4]; 2 U sc injection): rapidly became hypoglycemic
period during which blood glucose nadir persisted ([4]; 2 U subcutaneous injection): 0.5 to 5 h
blood glucose nadir ([4]; 2 U subcutaneous injection, baseline mean BG ~375 mg/dL): 70 to 80 mg/dL
actual steady-state plateau glargine concentration ([2]; after subtracting ~12.5 µIU/mL lispro infusion background): 6.4 µIU/mL
total plasma free insulin plateau concentration ([2]; single subcutaneous injection of glargine, type 1 diabetic subjects, over 3-24 hours (Lepore 2000)): 18.9 µIU/mL
mean plateau plasma concentration ([2]; single subcutaneous injection, patients with type 1 diabetes): ~6.4 micoU/mL
flux dose-response [1]: clear dose-response
saturating dose (flux not increased at 20 U/0.6 cm^2) [1]: 10 U/0.6 cm^2
return of plasma concentration to baseline level [5]: ≤ 5 h
t1/2 [5]: ~2 h
Cmax (plasma glargine) ([5]; adult rats ~250 gm): ~120 microU/mL
size of patch required to achieve and maintain target levels [6]: under 1 cm×1 cm

insulin lispro
flux dose-response [1]: clear dose-response
